B1: TfdA: 2,4-D alpha-ketoglutarate dioxygenase with A198V mutation, SEQ ID NO: 277 (protein, UniProt P10088 1-287, looked up)
Alpha-ketoglutarate-dependent …: MSVVANPLHPLFAAGVEDIDLREALGSTEVREIERLMDEKSVLVFRGQPLSQDQQIAFARNFGPLEGGFIKVNQRPSRFKYAELADISNVSLDGKVAQRDAREVVGNFANQLWHSDSSFQQPAARYSMLSAVVVPPSGGDTEFCDMRAAYDALPRDLQSELEGLRAEHYALNSRFLLGDTDYSEAQRNAMPPVNWPLVRTHAGSGRKFLFIGAHASHVEGLPVAEGRMLLAELLEHATQREFVYRHRWNVGDLVMWDNRCVLHRGRRYDISARRELRRATTLDDAVV
B2: CAC: 6-chloronicotinic acid chlorohydrolase from Bradyrhizobiaceae strain SG-6C, amino acid SEQ ID NO: 167 (protein)
chain: MSLIAIKNADWILTMDGARRVIADGSILIDKDRIRAIGKSAVIEIPPETTKVIDGRGKVVLPGLIDSHTHHSLHLGRGLADECDIQTFLYRRLYPIEASLNDEDAYISALLCQLEMIKSGTTSIIDAGNYFPEATLRAFGTTGMRGVVARSTFDIPTSSLGSLPAQVFAEETNVALKRAEEFVERNSGACDGRVQAWLQLRVLPNCSDELCRGLKSIADRLGVRYEAHAAFTKEVYEASKLQFGKSEVRRLDDLGILGEGLLLAHMGWLTPRDILLLISSKTNVVLCPTSSVHQAMGSIAFGHVPELLEMGVNVALGTDGGPHGTNDLVRQIFVAAGGYKEVRLDATIMPPETVLEMATVNGARAMGMSDQVGSIEPGKKADITIFDSRRPEWRPLHNPVANLVYCANGNSADTVIVDGRILMENRKILTFNEDDVITEAQRRSVEIGARAGLLEYGRPRWPVH
modifications: Bradyrhizobiaceae family
B3: ChD (SEQ ID NO: 169): chlorothalonil dehalogenase from Pseudomonas species strain CTN-3 with fifteen amino acid N-terminal truncation, SEQ ID NO: 169 (protein, listed as Pseudomonas sp.)
chain: MPLKFSGVLCASLLTITLSVAAHATELILDFNKVQMRSQQLAPGVYAHLPADSAELNAKGGVAGTSGGLIVGTRGAMLIETMLNRRLFDQVQALAKKEALGLPLLYAVNTSYHGDHSYGNMYLKAPTRVIQSTKTRDYVDGHLADDKAFMVKNFGAGRGVEQITARTGDILVPPGGRVSVDLGGKTVEIIDFGFAQTGGDLFVWEPQSKVMWTGNAVVASKPALPWLLDGKLVETLATLQKVYDFLPPDATIVPGHGVPMAREGLRWHLDYLAAVQAGVKDALARKLSLEQTVTELKMPEFRGYVLFDWVHPDLNVPAAYKDLAARP

Columns and labels:
[1] = 2,4-D degradation by TfdA (2,4-dichlorophenol colorimetric assay and HPLC); format: biochemical
Method: They were cloned, expressed, and produced in production batches as previously described for SM1 and other pesticide detoxifying enzymes. […] Reactions were then added to a 15 mL conical tube and placed in a shaker at 30° C. Aliquots consisting of 1 mL were taken from each reaction at the desired time points and flash frozen in a −80° C. freezer for later testing.
The 2,4-D degradation reaction samples were defrosted and vortexed. Samples consisting of 200 μL of each reaction were removed and placed in a 96 well plate. To each well on the assay plate containing a reaction sample, […] pH 10 (0.309 g boric acid, 0.373 g potassium chloride, 4.4 mL 1 M NaOH per 100 mL solution), 2 μL 2% 4-aminoantipyrine, and 2 μL 8% potassium ferricyanide were added. The wells were mixed by back pipetting. The plate was then covered with a film and placed in a 30° C. incubator for 1 hour.

[2] = Absorbance spectra assay of mecoprop degradation by ChD or CAC; format: biochemical; conditions: one hour at 37° C.
Method: (§1) Small scale (1 mL) assays were performed to evaluate the ability of ChD and CAC to degrade MCPA-4 amine or mecoprop.
(§2) MCPA-4 amine and mecoprop have absorbance maxima (Amax) at approximately 230 and 280 nm. […] MCPA-4 amine or mecoprop end product generation is directly proportional to the degradation MCPA-4 amine or mecoprop, respectively.

soybean plants [3] = test: Field soybean plant protection assay with dicamba, CAC or ChD and MnSO4; conditions: field soybean V3-V6, dicamba reaction buffer 200 ppm with 50 mM MnSO4, after 11 days
Method: The CAC and ChD enzymes were generated in production batches as previously described and divided up into aliquots and centrifuged to remove any cellular debris. […] The dilution to achieve 200 ppm or 200 mg/L was made in 25 mM HEPES pH 7 in a 10 mL total volume. […] To each treatment, 0.01% SILWET L-77 surfactant was added. Then, 4 mL of reaction solution was applied evenly across 20 plants and compared to the untreated control plants applied to soybean grown in the same location in the field to minimize any field variability. After 11 days, the average trifoliate damage was evaluated by visual scoring.

[4] = Absorbance spectra assay of dicamba degradation by ChD or CAC; conditions: dicamba 200 mg/L + enzyme at 20X dilution (5 μM), one hour at 37° C.
[5] = Absorbance spectra assay of MCPA-4 amine degradation by ChD or CAC; format: biochemical; conditions: one hour at 37° C.
Method: as §1, §2

[6] = Absorbance spectra assay of 2,4-D degradation by ChD or CAC; format: biochemical; conditions: 2,4-D 200 mg/L + enzyme at 20X dilution (5 μM), one hour at 37° C.
soybean plants [7] = test: V1 soybean bioassay of dicamba reacted with ChD with or without MnSO4; conditions: dicamba 100-200 ppm
Method: Soybean plants (variety Morsoy Xtra) were planted in Timberline soil (2 seeds per pot) and grown for 12 days under controlled environmental growth conditions: 300 μmol m^−2 s^−1 (light photons) for a 13/11 light/day cycle and a 21° C. day/15° C. night temperature range until the V1 stage of development.
The dilution to achieve 100 ppm or 100 mg/L was made in 25 mM HEPES pH 7 in a 10 mL total volume. […] The ChD enzyme production was centrifuged to remove any cellular debris and then divided into aliquots of 100 μL containing the Bacillus subtillis (A64) filtrate with the ChD expressed enzyme. […] The reactions were incubated at 37° C. with 400 ppm stirring for two hours. Aliquots of the reactions were collected and stored at −80° C.

soybean plants [8] = test: Soybean seed treatment with chlorothalonil dehalogenase, simulated spray drift of dicamba or 2,4-D; format: in vivo; conditions: soybean seed coated with 3 uL enzyme, 4 weeks after planting; for Percentage Increase in Plant Height Compared to Untreated Seed (2,4-D; Weedar ®64 Spray Treatment) / Percentage Increase in Total Plant Biomass Compared to Untreated Seed (2,4-D; Weedar ®64 Spray Treatment): over the top 2,4-D 500 ppm; for Percentage Increase in Plant Height Compared to Untreated Seed (Dicamba; Clash ™ Spray Treatment) / Percentage Increase in Total Plant Biomass Compared to Untreated Seed (Dicamba; Clash ™ Spray Treatment): over the top dicamba 100 ppm
Method: Soybean (variety Asgrow AG4034) seed received a seed treatment with chlorothalonil dehalogenase (SEQ ID NO: 169) enzyme obtained from a production batch produced in a manner similar to that was described previously to generate the SM1 enzyme. Seed treatments were applied prior to planting. […] Seeds were then planted directly into 39.7 cm^3 pots containing a mixture of 3:1 Timberline top soil to MIRACLE GRO potting soil at a depth of 2.54 cm, with 2 seeds per pot. After planting, 50 mL of room temperature water was added to each pot to allow for germination. […] The treatments were then placed in a greenhouse and randomized using a complete block design to adjust for temperature and lighting differences. The plants received the same day/night cycle that would occur in the field on a summer's day. After the initial watering, plants received the same watering regimes. […] The soybean plants were then harvested and measured for biomass and plant height 4 weeks after planting.

[9] = listed as Chlorothalonil dehalogenase (SEQ ID NO: 169)

Row | Molecule | 2,4-dichlorophenol generated ([1]; 2,4-D with TfdA enzyme, after 1 hour of incubation, 30° C. (FIG. 19)) | reduction of 2,4-D concentration quantified by HPLC ([1]; 2,4-D with TfdA, at 4 hours (FIG. 20)) [%] | Percent (%) increase in 252 λ (end-product formed) compared to Mecoprop control ([2]; mecoprop 200 mg/L + enzyme at 20X dilution (5 μM)) [%] | Percent (%) increase in 252 λ (end-product formed) compared to Mecoprop control ([2]; mecoprop 200 mg/L + enzyme at 40X dilution ([…])) [%] | average trifoliate damage score (soybean plants [3]) | Percent (%) increase in 259 λ (end product formed) compared to dicamba control [4] [%] | Percent (%) increase in 252 λ (end product formed) compared to MCPA-4-Amine control ([5]; MCPA-4 amine 200 mg/L + enzyme at 20X dilution (5 μM)) [%] | Percent (%) increase in 252 λ (end product formed) compared to MCPA-4-Amine control ([5]; MCPA-4 amine 200 mg/L + enzyme at 40X dilution ([…])) [%] | Percent (%) increase in 252 λ, (end product formed) compared to 2,4-D control [6] [%] | epinasty score and damage score on the trifoliate leaves compared to dicamba applied alone (soybean plants [7]) | Percentage Increase in Plant Height Compared to Untreated Seed (2,4-D; Weedar ®64 Spray Treatment) (soybean plants [8]) | Percentage Increase in Total Plant Biomass Compared to Untreated Seed (2,4-D; Weedar ®64 Spray Treatment) (soybean plants [8]) | Percentage Increase in Plant Height Compared to Untreated Seed (2,4-D; Weedar ®64 Spray Treatment) (soybean plants [8]; [9]) | Percentage Increase in Total Plant Biomass Compared to Untreated Seed (2,4-D; Weedar ®64 Spray Treatment) (soybean plants [8]; [9]) | Percentage Increase in Plant Height Compared to Untreated Seed (Dicamba; Clash ™ Spray Treatment) (soybean plants [8]) | Percentage Increase in Total Plant Biomass Compared to Untreated Seed (Dicamba; Clash ™ Spray Treatment) (soybean plants [8]) | Percentage Increase in Plant Height Compared to Untreated Seed (Dicamba; Clash ™ Spray Treatment) (soybean plants [8]; [9]) | Percentage Increase in Total Plant Biomass Compared to Untreated Seed (Dicamba; Clash ™ Spray Treatment) (soybean plants [8]; [9])
1 | B1 | over 2 mg/L | ~10 |  |  |  |  |  |  |  |  |  |  |  |  |  |  |  | 
2 | B2 |  |  | 346 | 130 | 1.0 | 344 | 340 | 195 | 148 |  |  |  |  |  |  |  |  | 
3 | B3 |  |  |  |  | 1.1 |  |  |  |  | decrease in damage | +6% | +6% | +6% | +6% | +35% | +149% | +35% | +149%
